We go through 2 molecules from patent US20160208004A1.

This test concerns the target human IL-17RA (human) (UniProt Q96F46). Briefly: cell-based or functional assay.

Positions count from the first letter of the chain named.

B1: 3.1404 (antibody, from a related filing, V domains shown)
VH: QVQLVQSGAEVKKPGASVKVSCKASGYTFTRYGISWVRQAPGQGLEWMGWISTYSGNTNYAQKLQGRVTMTTDTSTSTAYMELRSLRSDDTAVYYCARRQLYFDYWGQGTLVTVSS
VL: EIVMTQSPATLSVSPGERATLSCRASQSVSSNLAWFQQKPGQAPRPLIYDASTRATGVPARFSGSGSGTDFTLTISSLQSEDFAVYYCQQYDNWPLTFGGGTKVEIK
With B1, the % Inhib. of IL-5 production, TSLP treated human PBMC + IL-2 + IL-25, Expt. 1 is 68%; the % Inhib. of IL-5 production, TSLP treated human PBMC + IL-2 + IL-25, Expt. 2 is 76%; the % Inhibition of IL-5 production, TSLP treated human PBMC + IL-2 + IL-25; inhibitor 0.1 micrograms/mL is 12%; the % Inhibition of IL-5 production, TSLP treated human PBMC + IL-2 + IL-25; inhibitor 1.0 micrograms/mL came to 54%.

B2: 3.381 (antibody, from a related filing, V domains shown)
VH: B1 VH with T53A
VL: B1 VL with A19V, T56A, V58I
For B2, the % Inhib. of IL-5 production, TSLP treated human PBMC + IL-2 + IL-25, Expt. 1 was determined as 90%; the % Inhib. of IL-5 production, TSLP treated human PBMC + IL-2 + IL-25, Expt. 2 is 75%; the % Inhibition of IL-5 production, TSLP treated human PBMC + IL-2 + IL-25; inhibitor 10 micrograms/mL was found to be 100%.
